Measurements published in patent US12134788B2, “Engineered prephenate dehydrogenases and arogenate dehydrogenases and methods of using the same” (Wisconsin Alumni Research Foundation, priority 2017, dated 2024).
Each block holds one molecule with its values, some of them ahead of it.

Key:
[1] = PDH assay of microbial TyrA enzymes (Example 2); type: biochemical
Procedure: ADH and PDH assays were performed using purified recombinant enzymes for SsTyrA and MhTyrA Wt and Q227E mutant, while the E. coli cell lysate was used for OiTyrA as expression and purification of this enzyme was unsuccessful. Reactions contained 0.8 mM substrate (arogenate or prephenate) and 0.8 mM cofactor (NADP+ or NAD+) together with reaction buffer (25 mM HEPES pH 7.6, 50 mM KCl, 10% (v/v) ethylene glycol). For OiTyrA assays containing cell lysates, reactions were incubated for 45 minutes and analyzed using HPLC as previously reported (Schenck et al., 2015). For pure enzymes, reactions were monitored every 10-15 seconds for reduced cofactor at A340 nm using a microplate reader (Tecan Genios). Kinetic parameters of purified recombinant enzymes were determined from assays containing varying concentrations of arogenate (39.1 μM-5 mM) or prephenate (39.1 μM-5 mM) substrate and monitored 10-15 seconds for reduced cofactor at A340 nm using a microplate reader (Tecan Genios). Kinetic parameters were determined by fitting initial velocity data to the Michaelis-Menten equation using Origin software (OriginLab) from technical replicate assays (n=3). Arogenate substrate was prepared by enzymatic conversion of prephenate (Sigma-Aldrich). All enzyme assays were conducted at a reaction time and protein concentration that were in the linear range and proportional to reaction velocity.

[2] = PDH assay: steady-state kinetics of purified recombinant plant enzymes with prephenate; type: biochemical; conditions: prephenate versus arogenate, NADP+ cofactor
Text: As used herein, a polypeptide may “have greater arogenate dehydrogenase activity than prephenate dehydrogenase activity” or “have greater prephenate dehydrogenase activity than arogenate dehydrogenase activity” when the steady-state kinetic parameters (kcat/Km (mM^−1s^−1)) for arogenate dehydrogenase activity are greater than the steady-state parameters (kcat/Km (mM^−1s^−1)) for prephenate dehydrogenase activity or when the steady-state kinetic parameters (kcat/Km (mM^−1s^−1)) for prephenate dehydrogenase activity are greater than the steady-state parameters (kcat/Km (mM^−1s^−1)) for arogenate dehydrogenase activity. Steady-state kinetic parameters may be measured using techniques similar to those described by the inventors in the Examples. Briefly, kinetic parameters of purified polypeptides can be determined from assays conducted at varying arogenate and prephenate concentrations. Standard assay conditions include 25 mM HEPES pH 7.6, 50 mM KCl and 10% (v/v) ethylene glycol, and 0.5 mM NADP^+ with varied substrate, concentrations. Reactions can be initiated by the addition of the polypeptide and incubated at 37° C. monitored every 10-15 seconds at A340nm using a microplate reader. Kinetic parameters may be determined by fitting initial velocity data to the Michaelis-Menten equation using the Origin software.
Kinetic parameters of purified recombinant proteins were determined from assays conducted at varying arogenate (19.5 μM-5 mM) and prephenate concentration (23.4 μM-6 mM). Standard assay conditions were 25 mM HEPES pH 7.6, 50 mM KCl and 10% (v/v) ethylene glycol, and 0.5 mM NADP^+ with varied substrate, concentrations. Reactions were initiated by addition of enzyme and incubated at 37° C. monitored every 10-15 seconds at […] using a microplate reader (Tecan Genios). Kinetic parameters were determined by fitting initial velocity data to the Michaelis-Menten equation using the Origin software (OriginLab).

- ADH and PDH activity (in words) ([1]; 0.8 mM arogenate or prephenate, 0.8 mM cofactor): strong PDH and very weak ADH activity
B1: Wild-type: wild-type archaeon TyrA from Methanosaeta harundinacea, recombinant (protein)
chain: MTTMANSGTKNRMLIVGGTGGTGSWFAKYFKEHGFLVSIWGPSGKVEVAERLGVKFARDLMAEVAKSDVVLLSVPIKETAKVVEEVAPRMRPGSLLMDVTSLKAEPMKAMLRWAPDGVEVLGTHPMFGPTIPTIRGQTVILVPAAGRCDEWLLPMEEIFQEDGARVEVLGAEEHDRIMAVVQALTHFAYISIGSTLRSLDFDIAHSRRLMSPVYEIMIDFVGRILAQSPELYSSIQENPEAKRVREAYIEECQRLSKLADTGNSEGFMEAMRSAADHFDEREVALARSDRLISLWIDHREGKRRGLEPRW
modifications: M. harundinacea; misc_feature (1)..(310): M. harundinacea TyrA MhTyrA
notes: wild-type archaeon TyrA from Methanosaeta harundinacea, recombinant
- cofactor preference (in words) ([1]; PDH activity, NADP+ versus NAD+, 0.8 mM): strongly preferred NADP+ over NAD+ cofactor

B2: MtPDH C220D: site-directed mutant of M. truncatula PDH, Cys220 to Asp (protein)
chain: MSSSSKSLKIGIVGFGTFGQFLANTMIKQGHTLTATSRTDYSQLCDQMGIHFFRDITAFLDADMDVILLCTSISSLSEVVGSMPLACLKRPTLFVDVLSVKEHPKNLLLKVLPEESDILCTHPMFGPVSGKNGWQNLTFMFDKVRIKDEVTCSKFLQIFASEGCKMVEMSCEEHDKAAAKSQFITHTIGRTLAEMDIKSTPIDTKGFQTLVELKKPVMGDSFDLYSGLFVYNRFARQELENLEHALHKVKEMLVQRIDEGQNPERTES
modifications: Synthetic: MtPDH C220D
notes: site-directed mutant of M. truncatula PDH, Cys220 to Asp
- substrate specificity: PDH versus ADH activity (in words) [2]: reduced PDH activity and enhanced ADH activity

- substrate specificity: PDH versus ADH activity (in words) [2]: gained ADH activity
B3: GmPDH1 N222D: site-directed mutant of soybean PDH, Asn222 to Asp (protein)
chain: MSTSSSSQSLKIGIVGFGNFGQFLAKTMIKQGHTLTATSRSDYSELCLQMGIHFFRDVSAFLTADIDVIVLCTSILSLSEVVGSMPLTSLKRPTLFVDVLSVKEHPRELLLRELPEDSDILCTHPMFGPQTAKNGWTDHTFMYDKVRIRDEVICSNFIQIFATEGCKMVQMSCEEHDRAAAKSQFITHTIGRTLGEMDIQSTPIDTKGFETLVKLKETMMRDSFDLYSGLFVYNRFARQELENLEHALHKVKETLMIQRTNGEQGHKRTES
modifications: Synthetic: GmPDH1 N222D
notes: site-directed mutant of soybean PDH, Asn222 to Asp

- substrate specificity: PDH versus ADH activity (in words) [2]: exhibited ADH but not PDH activity
B4: SolyncADH: noncanonical arogenate dehydrogenase from tomato, wild-type (protein, listed as Solanum lycopersicum)
chain: MSSSSSCQPKTLRIGIIGFGPFAQFLAKTMMKQGHCIHVTSRSDYSELCTDLGILFFRDMGAFLESDNEVIMISTSILSLSQVVESIPFNCLKRPTLFVDVLSVKEHPKDVLLRMMPRECDLLCTHPMFGPESGKDGWEDLTFMYDMVRIRDQPLCSSFLHIFSSEGCKMLEMTCEKHDRLAAQSQFLTHTIGRILSEMEVEPTPIDTKGFQKLVQVKESSVKDSFDLFSGLFIHNRFARQQMKNLEVALEKTKEKLQERSKELQDPIISKF
modifications: misc_feature (1)..(272): SolyncADH WT
notes: noncanonical arogenate dehydrogenase from tomato, wild-type
